According to article PMC2723105, “DNA binding by Corynebacterium glutamicum TetR-type transcription regulator AmtR”:

Tests used:
[1] = target: T1, AmtR-MBP wild type (Corynebacterium glutamicum ATCC13032) (UniProt H7C699); assay: EMSA; settings: EMSA: DIG gel shift kit (Roche) conditions, 0.04 ng DNA, native 6% PAGE in 0.5x TBE; SPR: HBS-EP running buffer, 25 °C, BIAcoreX, nonspecific 30-mer DNA in the …
T1 sequence: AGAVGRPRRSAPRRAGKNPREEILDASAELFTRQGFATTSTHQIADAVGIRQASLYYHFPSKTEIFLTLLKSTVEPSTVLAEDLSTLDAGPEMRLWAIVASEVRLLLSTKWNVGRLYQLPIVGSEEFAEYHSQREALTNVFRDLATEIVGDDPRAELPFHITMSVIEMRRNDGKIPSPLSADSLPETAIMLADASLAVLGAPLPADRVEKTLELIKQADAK

AmtR-MBP wild type [2] = target: T2, AmtR-MBP wild type (Corynebacterium glutamicum ATCC13032, UniProt H7C699 2-222); assay: EMSA; settings: EMSA: DIG gel shift kit (Roche) conditions, 0.04 ng DNA, native 6% PAGE in 0.5x TBE; SPR: HBS-EP running buffer, 25 °C, BIAcoreX, nonspecific 30-mer DNA in the …
T2 sequence: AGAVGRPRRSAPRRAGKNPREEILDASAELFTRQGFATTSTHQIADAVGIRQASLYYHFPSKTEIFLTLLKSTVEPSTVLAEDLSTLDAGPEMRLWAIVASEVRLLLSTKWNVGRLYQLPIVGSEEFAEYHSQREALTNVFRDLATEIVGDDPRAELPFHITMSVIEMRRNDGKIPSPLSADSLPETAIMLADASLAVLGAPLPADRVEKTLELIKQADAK

AmtR-MBP wild type [3] = target: T2, AmtR-MBP wild type; assay: SPR; EMSA: DIG gel shift kit (Roche) conditions, 0.04 ng DNA, native 6% PAGE in 0.5x TBE; SPR: HBS-EP running buffer, 25 °C, BIAcoreX, nonspecific 30-mer DNA in the; settings: protein: recombinant; tags: N-terminal MBP (pMalc2); chain copies: 2; label: 3' biotin on forward strand; blunt

With “GCCCGTGGTGTGCTCACCAATGATGAAGTCGACGCGCTGACACAGGTGTGGACTTCCGCACTGAGCTTGCAGTCGAAACGTTGGATGGATCACATCCATGATCAAGAAACCACCGCTTGGGAGCTTCCCGCGCTGCAACGTGCCACTTTTGGCGCATCGGCTCGGTTGCTTTCTGAGGTGTTGCGGTCCGTTGAAGCCCGTGAAATCGATACCATAATAGGAACTCTG (double strand) [amtR upstream DNA, additional spacing nucleotide]” the binding [1] was “binds”.

“GCTGGGCTAGAAACCCGATAAGCGAGAACCACCTGTCGGATGTTGTCTGGCAGGTGGTTTTCTTTTGCCTGGGTACCACCAAAAAGCAGCTGTGATGCACTTAACAATTCATTAAATTACCTGTTAAACTATAGAAAATATCCAAAACCCTCCAAAACCTATTCTATAGATCTATTGAAATTAGTTTCTGTAGGTCTATAGTTAGAGCTGGTTCAAGGGGTGTCAATCCCAAAAGGCACTCCTTGAACTCATGAAAAAGCTTGACAAAACTTCAACGTCAAAGGAGGTCATCCACGC (double strand) [amtB promoter PCR fragment]” was tested, and the Kd [1] was 2400 nM.

amtB promoter PCR fragment was tested, and the Kd (AmtR-MBP wild type [2]) was 2400 nM.

B1: amtBp SPR 30-mer (dsDNA)
DNA 1: TAAATTACCTGTTAAACTATAGAAAATATC
DNA 2: GATATTTTCTATAGTTTAACAGGTAATTTA
B1: binds (AmtR-MBP wild type [3]).
